Assay results published in patent publication US20030073628A1.
Positions of bridges follow the written chain, without caps; N, C: chain ends. No end group written: not given here.

target: guanylate cyclase receptor (on human T84 colon carcinoma cells) (human); assay: cell-based or functional assay

cGMP Level (pmol/well), T84 cells, 1 micromolar peptide for 30 minutes [pmol/well]	Binder
315	NDECELCVNVACTGCL (disulfide 4-12, 7-15) [[Glu^3]-UG (SP304)]
205	NDDCELCVNVACTGCL (disulfide 4-12, 7-15) [human uroguanylin, bicyclo [4,12; 7,15] (SP301)]
275	ECELCVNVACTGCL (disulfide 2-10, 5-13) [SP316]
225	NEECELCVNVACTGCL (disulfide 4-12, 7-15) [[Glu^2, Glu3]-UG (SP302)]
195	NEDCELCVNVACTGCL (disulfide 4-12, 7-15) [[Glu^2]-UG (SP303)]
